Molecular target: the molecule itself

B1: zSIGIRR-TIR (domain or fragment)
chain: KMYDAYISYVNNENDRKFVNFILKPHLENKYSHKLLLNNTNILPGAEPSAELLMNISRCQRLIVVLSQSYLEQEWCTTNFRQGLWHLIELSRKPIFIIFQSQQKQISQDISQQLRQHQPCITMITWGAHSMTPSSGFWKELALVMPRK
  stoichiometry N: 2

— article PMC9213720 (iScience, 2022)
